Test results as given in the supplement of paper PMC12042874.
± gives the uncertainty stated by the source.

Test: amyloid nucleation score (Sup35N fusion, yeast selection) (log enrichment); library NNK3; higher = more nucleation; inactive = no reads after selection
In short: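 Random libraries were run with three technical output replicates. In each, psi-negative yeast expressing Sup35N fused to peptides of 20 random codons were induced 24 hours with 100 μM copper sulfate and grown 7 days at 30°C on medium lacking adenine and uracil, and input and output plasmid inserts were Illumina-sequenced. The nucleation score is the DiMSum log enrichment of output over input reads, centred on the mode score of non-aggregating sequences, and sequences under 100 input reads were excluded.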

Substance | amyloid nucleation score
FVCRNLTFPMGHQSIMSMWD | -0.117 ± 0.75
GPDWYWNLNV | inactive
FNFCCLSKQGAFFMGTYCCP | 0.341 ± 0.6
GYVPHVFFRILRLVRENMLE | inactive
VWLCSLLQITFIYAEVTVSL | inactive
KSHPINIRPFKYIPKMLASS | inactive
HITNGRGWRHGRVWSSIWFF | inactive
RLNCNYTFLLNTIHSPWCCC | inactive
IIYPAMTHFLSYMYRVNCVS | inactive
DIELLGKARGYSLEQG | inactive
IYPLAKFSLHLVYTDRVSIF | 0.352 ± 0.19
YGWFVDFGEYVTESNVGLY | inactive
GDPNPHYL | inactive
LSAMLDTDAYRGLW | inactive
MYYSSYR | inactive
HLVAMMLCQLDTLTFYRYGG | inactive
FGIEQTWSNECSVKTVEMRC | inactive
SFLRYNKSY | inactive
GSVQAFCISKP | inactive
NYGAN | inactive
YNRANYAKRVCTSSVNVETE | 0.294 ± 0.47
NSRHLDIFRMFDNFSVCHQP | inactive
WLGWPD | inactive
DVFVHHDM | inactive

Substance | amyloid nucleation score
NGFRI | inactive
SRMLVSKLWKNMGLVSSAYL | inactive
GMLGTGYVYPCWL | inactive
NMDSAWKCPHPYKSLTIVCF | inactive
SFKDCSVDSWFGSIIG | inactive
FNVLNVNS | inactive
CLEPNILVLIMEFVY | inactive
LYSVSAAMDTIKPLFPRGNA | inactive
WGICFVITYNIKIKYDHLMS | 1.18 ± 0.081
MDGGASSREVAWWSLSNRGA | inactive
SKTGGFFNAVHASCPGVPLQ | inactive
VVERKGRSKKLVFVCLLILW | inactive
SCVLTFGFLILLRVPSYSRI | inactive
GFLPA | inactive
KNMHNPDRY | inactive
LDKCNHS | inactive
EGGLDFVFLYYGIICWVVAA | 0.282 ± 0.74
SVVPQDDILLNCGLEQAILG | inactive
ILIEVFLWSCYKYVNC | inactive
DRYMRLCVFGYKYVSYG | inactive
CMFLGSELCWRRPRGS | 0.443 ± 0.32
ATDCLCEQRPVFPNKVKWQS | inactive
ETDYVGRFALMKYDGLVYI | inactive
GSMMSCWRLAESWVVSKPPG | inactive

Substance | amyloid nucleation score
GSKCWPDLQMLIFEVVHHRA | inactive
SMIKPAIFGYNVMLVPYINC | inactive
LKIAQHRGSVFNGDKK | inactive
AFYLMLVS | 1.12 ± 0.12
FFVKEFLVLDICGMTLPFDI | inactive
LSSGG | 0.088 ± 0.4
GKEKCTMNSHATLRVDVEMT | inactive
ITLLYALVLFFTWNVSG | inactive
SELTEVTSITDWF | inactive
LLVPILCPFKV | inactive
MICAGVMIGYALFYFQIWSC | inactive
RNLRVIGVTRDHGNF | inactive
VDVERIQFRSICLCLSTFCV | 1.53 ± 0.081
SSSAF | inactive
EQIPMKSVEGEYWLTVIVGN | inactive
LDTYCIVDRDNRCGRNVVLY | inactive
WIERAAAALVLDLLCSKRRA | inactive
SGALAKDVSVGVCVRPARLY | 0.653 ± 0.19
IPQNNLSDWLKCQMILVKEY | inactive
NYYRC | inactive
SNNLKLAPGSWVPYSDRIHR | inactive
SMDVKHRR | inactive
SDSDMNKNMHMDSTHGRAMD | inactive
CALCRYC | inactive

Substance | amyloid nucleation score
MFMYCPCSLEDICLRFPTPV | inactive
KHRWVQLLWCWYFTGSQYRI | inactive
VYRIARMAQHLIRWKNR | 0.187 ± 0.7
IIVTL | inactive
VPGDEHRDGKLGAKWWTCRR | inactive
IVGYERATFVLRSYRFEKVS | inactive
LVGMDTGIVNDSIDGPGYWV | inactive
WDKSLSVRTQVCHNRDS | inactive
TDYPLLMLL | inactive
KMDKFPV | 0.391 ± 0.34
SNCGL | 0.832 ± 0.28
FWKLNFITIMCG | -0.34 ± 1
YSGWVCWSLQLTYMTFNFRL | inactive
VRSPPVPLNCVE | inactive
RPNVDWKMPRFCFPSQSKTG | inactive
FDGYCFFYYWLGVWWSTSI | inactive
YQIFYSEVSFLMAG | inactive
NVTNSRHHLQFGYMRAMVNV | inactive
LSAATYPL | inactive
YRMIKHRTFDSPVLFS | inactive
VDNHAFKAFKHLGSSLMADR | inactive
FTLLVMS | inactive
IDTTQVLGMNS | inactive
LFQIM | inactive

Substance | amyloid nucleation score
YSWRGIFNGWFFCFMARVLG | inactive
ERNNKCDNTVLMKREELQG | inactive
YTYWG | inactive
IEFMCLHGKVTLITIVF | inactive
LMFSMRTDRSMCGKDPLKRA | inactive
KCSRDRWQIVKMFMRMTVAI | inactive
YHCWSDLDKSLELLSQLMFR | inactive
SYVNIFHDGIIMNSYVAWGH | inactive
TVDNHGSA | inactive
VCCSVSVAWKSWAHT | 1.28 ± 0.13
SPTLRFGRQKFRQCGVKRVS | 1.35 ± 0.11
LVWVKLAANAFVV | 1.4 ± 0.074
DCSSNVRTSCWNHRSYHVVY | inactive
PTSSKLKFAFINYVLTVSTS | inactive
TYAIGLHMLGSMGKIPDWEQ | 1.25 ± 0.14
GVQAITGPLSVQDVYRWAKP | inactive
SMYDKGMGYTCVKSSVNLFV | inactive
HKSIYF | inactive
SNSMS | inactive
RYFPTV | inactive
SYLKRGKSVAIQLTYGS | 0.405 ± 0.67
YSYNKFAVEVYLSSLHPEMM | inactive
LLLFRKRLMLPRVLQQVPRH | inactive
SDIGVCSLKICSTIILVANM | inactive
